Reference: patent US11819540B2, “Methods for treating and preventing neutrophil-derived net toxicity and thrombosis” (CHILDREN'S MEDICAL CENTER CORPORATION, priority 2011, dated 2023)

Experiments:
[1] = system: ischemic stroke (tMCAO) in mice; assay: Transient middle cerebral artery occlusion (tMCAO) stroke model; type: in vivo, mouse
Method: Next, the question of whether cerebral ischemia/reperfusion injury effects circulating levels of NETs was addressed. Wild-type C57BL/6 mice were subjected to 2 hours of transient middle cerebral artery occlusion (tMCAO), followed by 22 hours of reperfusion. Focal cerebral ischemia was induced by 60 or 120 min tMCAO. Mice were anesthetized with 2% isoflurane/oxygen mixture. Following a midline skin incision in the neck, the proximal common carotid artery, and the external carotid artery were ligated, and a standardized silicon rubber-coated 6.0 nylon monofilament (6021; Doccol Corp., Redlands, CA) was inserted and advanced via the right internal carotid artery to occlude the origin of the right MCA. […] The intraluminal suture was left in situ during the complete occlusion time. Then animals were re-anesthetized, and the occluding monofilament was withdrawn to allow reperfusion. In animals undergoing a sham treatment, the exact same procedure was followed except that the monofilament was only inserted three quarters of the normal distance that is necessary to occlude the MCA, after which it was immediately withdrawn. Some animals were exclusively used for laser-Doppler flowmetry (Periflux 5000, Perimed, Kings Park, NY) to monitor regional cerebral blood flow (rCBF) in the MCA territory.
Wild type (WT) and […] mice were subjected to 1 h of tMCAO and 23 h of reperfusion after which mice and brains were analyzed. Mice were killed 24 hours after initiation of tMCAO. Brains were quickly removed and cut into 2-mm-thick coronal sections using a mouse brain slice matrix. The slices were stained with 2% 2,3,5-triphenyl-tetrazolium chloride (TTC; Sigma-Aldrich, St. Louis, MO) in PBS to visualize the infarctions. Sections were photographed with a digital Nikon D70 camera and infarct areas (white) were measured blindly using Image J software (National Institutes of Health). Brain infarct volumes were measured by planimetry (FIG. 9A). Compared to the wild-type controls, DNase-1^−/− mice developed larger brain infarctions (84.10±7.24 mm^3 versus 58.50±4.04 mm^3, p<0.05, FIG. 9A).
Neurological function was assessed, blinded for the mouse genotype 24 h, after initiation of tMCAO, using the modified Bederson score (Bederson et al., Stroke 1986 17:472-6). This test determines global neurological function according to the following scoring system: 0, no deficit; 1, forelimb flexion; 2, decreased resistance to lateral push; 3, unidirectional circling; 4, longitudinal spinning; 5, no movement. The grip test was performed as described (Moran et al., PNAS 1995 92:5341-5). A mouse was placed on a wooden bar (3 mm in diameter, 40 cm long) that is attached to two vertical supports 40 cm above a flat surface. When placing the mouse at a point midway between the supports, the experiment was rated according to the following system: 0, falls off; 1, hangs onto bar by two forepaws; 2, as for 1, but attempts to climb onto bar; 3, hangs onto bar by two forepaws plus one or both hindpaws; 4, hangs onto bar by all four paws plus tail wrapped around bar; 5, escape (where mouse was able to work its way to one of the supports). […] The turns in one versus the other direction were recorded from ten trials for each test. Turning movements that were not part of a rearing movement were not scored. […]

[2] = system: flow restriction-induced DVT in mice; assay: IVC stenosis (flow restriction) model of deep vein thrombosis; type: in vivo, mouse
Description: Mice were anesthetized by isoflurane-oxygen mixture and placed in a supine position. After laparotomy, intestines were exteriorized and warm sterile saline was applied during the whole procedure to prevent drying. After gentle separation from aorta, IVC was ligated over a 30 G needle by a 7.0 polypropylene suture immediately below the renal veins (towards the tail) and then the needle was removed. The needle was placed outside the vessel so that piercing or any other injury to the IVC wall was completely avoided. This procedure allows for standardized flow restriction without endothelial injury. All visible side branches (usually 1 or 2) were also ligated. After surgery, peritoneum and skin were closed by monofilament absorbable suture and 6.0 silk, respectively. Mice were euthanized after 6 h or 48 h and thrombi developed in the IVC below the suture (towards the tail) were taken for analysis.
All mice were treated with DNaseI (Pulmozyme®) immediately after surgery and mice with 48 h IVC stenosis received 3 additional injections every 12 hours. The dose of every injection was 50 μg i.p. (50 μl of non-diluted Pulmozyme) and 10 μg i.v. (in 50 μl of sterile saline) in retro-orbital plexus. Control mice were injected with the same volume of DNase buffer (8.77 mg/ml sodium chloride and 0.15 mg/ml calcium chloride in sterile water for injections).
Flow restriction model. The murine model of DVT was performed as described. […] A suture was placed on the IVC just below the renal veins over a spacer (diameter of 0.26 mm) and then the spacer was removed. […] All visible IVC side branches were also sutured. Thereafter, peritoneum and skin were closed, mice were sacrificed after 1-48 h and thrombi formed in the IVC were harvested. Sham-operated mice were opened and IVC sutured similarly to the experimental mice, but the suture was removed immediately after ligation.
Histone infusion. A mixture of all histones isolated from calf thymus (Worthington, Lakewood, NJ, USA) was dissolved in sterile saline and infused intravenously in mice immediately before IVC stenosis application. The dose used (10 mg kg^−1) is known to produce a 25% decrease in platelet count 10 min after infusion. The infused solution of histone mix was essentially endotoxin-free (<0.025 EU mL^−1; measured using the endotoxin detection kit [Lonza, Walkersville, MD, USA] according to the manufacturer's instructions). Control mice received infusion of sterile saline. Mice were sacrificed 1 h after surgery and thrombus formation was examined.
DNase 1 infusion. DNase 1 (PULMOZYME®, Genentech, San Francisco, CA, USA) was diluted in sterile saline and injected immediately after surgery (50 μg intraperitoneally and 10 μg intravenously). In experiments with 48 h IVC stenosis, injections were repeated three more times after every 12 h. Control mice were injected with the PULMOZYME™ vehicle buffer (8.77 mg mL^−1 sodium chloride and 0.15 mg mL^−1 calcium chloride) diluted in sterile saline.

[3] = rhDNase-1 vs vehicle, 24 h, p<0.05
[4] = 6 h and 48 h IVC stenosis, vs vehicle

B1: rhDNase-1: recombinant human DNase-1 (Dornase alpha, Pulmozyme, Genentech) (protein, UniProt P24855 23-282, looked up)
Deoxyribonuclease-1: LKIAAFNIQTFGETKMSNATLVSYIVQILSRYDIALVQEVRDSHLTAVGKLLDNLNQDAPDTYHYVVSEPLGRNSYKERYLFVYRPDQVSAVDSYYYDDGCEPCGNDTFNREPAIVRFFSRFTEVREFAIVPLHAAPGDAVAEIDALYDVYLDVQEKWGLEDVMLMGDFNAGCSYVRPSQWSSIRLWTSPTFQWLIPDSADTTATPTHCAYDRIVVAGMLLRGAVVPDSALPFNFQAAYGLSDQLAQAISDHYPVEVMLK
brain infarct volume ([1]; 1 h tMCAO, 23 h reperfusion, 50 μg i.p. 15 min before surgery and 12 h later, 10 μg i.v. 5 min before reperfusion, vehicle 81.45±9.08): 50.67±8.74 mm^3 | infarct size smaller than vehicle ([1]; 1 h tMCAO, 23 h reperfusion, rhDNase-1 vs vehicle): approximately 40% | Bederson test score [1, 3]: significantly better | corner test result [1, 3]: significantly better | grip test score [1, 3]: significantly better | protection from DVT (thrombus incidence) ([2]; 6 h and 48 h IVC stenosis): protected mice from flow restriction-induced DVT | thrombus length [2, 4]: significantly reduced | thrombus weight [2, 4]: significantly reduced | protection from DVT (thrombus incidence) ([2]; 6 h and 48 h IVC stenosis, listed as DNaseI): greatly reduces the incidence of thrombosis | mice that developed a thrombus ([2]; 48 h IVC stenosis, 50 μg i.p. and 10 μg i.v. every 12 h, 2 of 12, vehicle 5 of 8): 17%
